Laboratory results: US20240301062A1
Where a chain is given by its changes, count along the chain named.

Assays:
[1] = target: CD3ε/δ (SPR analyte) (UniProt P07766); test: SPR, antibody captured by anti-human Fc
[2] = target: CD3ε/δ (SPR analyte) (UniProt P07766); test: SPR, antibody captured by anti-human Fc; remark: listed apart in the source
[3] = target: CD3ε/δ (SPR analyte) (UniProt P07766); test: SPR

CD3ε/δ (SPR analyte), sequence (P07766 23-126, stated change not applied, chain 1 of 2): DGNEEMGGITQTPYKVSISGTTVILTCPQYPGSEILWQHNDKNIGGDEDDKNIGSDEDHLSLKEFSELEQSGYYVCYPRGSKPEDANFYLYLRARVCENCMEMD
CD3ε/δ (SPR analyte), sequence (P04234 22-105, stated change not applied, chain 2 of 2, further chain): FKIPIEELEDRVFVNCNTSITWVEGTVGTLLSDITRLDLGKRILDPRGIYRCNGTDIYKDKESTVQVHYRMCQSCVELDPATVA

B1: chimeric sp34 (ch-sp34) (antibody, V domains shown)
VH: EVQLVESGGGLVQPKGSLKLSCAASGFTFNTYAMNWVRQAPGKGLEWVARIRSKYNNYATYYADSVKDRFTISRDDSQSILYLQMNNLKTEDTAMYYCVRHGNFGNSYVSWFAYWGQGTLVTVSS
VL: QAVVTQESALTTSPGETVTLTCRSSTGAVTTSNYANWVQEKPDHLFTGLIGGTNKRAPGVPARFSGSLIGDKAALTITGAQTEDEAIYFCALWYSNLWVFGGGTKLTVL
- Kd [1]: 0.0271 µM
- koff [1]: 0.00296 s⁻¹
- kon [1]: 109000 M⁻¹ s⁻¹

B2: humanized sp34 BG53P (antibody, V domains shown)
VH: B1 VH with K15G, K19R, S77A, Q78K, I80S, N87S, K89R, T90A
VL: QAVVTQSPATLSVSPGERATLSCRSSTGAVTTSNYANWVQEKPGQLFTGLIGGTNKRAPGIPARFSGSLSGDEATLTISSLQSEDFAIYFCALWYSNLWVFGGGTKVEIK
- Kd [2]: 0.00962 µM
- koff [2]: 0.00105 s⁻¹
- kon [2]: 109000 M⁻¹ s⁻¹
- Kd [1]: 0.0254 µM
- koff [1]: 0.00252 s⁻¹
- kon [1]: 99300 M⁻¹ s⁻¹

B3: humanized sp34 BG56P (antibody, V domains shown)
VH: B1 VH with K15G, K19R, S77A, Q78K, S79N, I80S, N87S, K89R, T90A, M95V
VL: B2 VL with Q1E, A2I, V4L, E41Q, L46A, F47P, T48R, I88V, F90Y
- Kd [2]: 0.0182 µM
- koff [2]: 0.00112 s⁻¹
- kon [2]: 61600 M⁻¹ s⁻¹
- Kd [3]: 0.0182 µM
- koff [3]: 0.00112 s⁻¹
- kon [3]: 61600 M⁻¹ s⁻¹

B4: humanized sp34 scFv BG561P (scFv-Fc) (Fc fusion, not shown: a dimerising Fc or GST)
scFv: EVQLVESGGGLVQPGGSLRLSCAASGFTFNTYAMNWVRQAPGKGLEWVARIRSKYNNYATYYADSVKDRFTISRDDAKNSLYLQMNSLRAEDTAVYYCVRHGNFGNSYVSWFAYWGQGTLVTVSSGGGGSGGGGSGGGGSEIVLTQSPATLSVSPGERATLSCRSSTGAVTTSNYANWVQQKPGQAPRGLIGGTNKRAPGIPARFSGSLSGDEATLTISSLQSEDFAVYYCALWYSNLWVFGGGTKVEIK
- Kd [3]: 0.0259 µM
- koff [3]: 0.00188 s⁻¹
- kon [3]: 72500 M⁻¹ s⁻¹
